The nature of this series: amyloid nucleation score (Sup35N fusion, yeast selection) (log enrichment); library NNK2; higher = more nucleation; inactive = no reads after selection. Put shortly: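 For the nucleation score, DiMSum gave the log enrichment of output over input reads, centred on the mode score of non-aggregating sequences. Psi-negative yeast expressing Sup35N fused to peptides of 20 random codons were induced with 100 μM copper sulfate for 24 hours and grown 7 days at 30°C on medium lacking adenine and uracil. Input and output plasmid inserts were Illumina-sequenced, and sequences with under 100 input reads were excluded.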

± gives the uncertainty stated by the source.

In turn, VKITGPRWLATIICYMFR returned an amyloid nucleation score of 6.47 ± 0.075. QILWYWGREVFSRRDRFCSV registered an amyloid nucleation score of 1 ± 0.68.

Take LASLSDFPFYLTWWS: the amyloid nucleation score is -0.157 ± 0.45. Next, CMKMSWFRTRSTYSIEALHS: 0.037 ± 0.41; FNRDK: -0.512 ± 0.76; TVSNPGMPNAI: -0.557 ± 0.64. To NCSYNMNKRASSMFHSGCVV belongs 2.81 ± 0.14; to YINHSHVRGIVRIYNVQV, “inactive”; to TLYDGWLVGPVERRFVIRAL, 1.08 ± 0.21. Next, RVVWWVVGFS: -0.297 ± 0.56; LSLTNIYGKSIRDERIKTSC: -0.129 ± 0.65. The substance AGLLYVSRLNWSVSQRNGVG came in with an amyloid nucleation score of 0.131 ± 1.

In turn, DKVDLSA registered an amyloid nucleation score of 0.053 ± 1.1. To TSRKGNSSHL belongs -1.54 ± 0.75; to TFDFDNVAVYYALSGTGDSW, -0.516 ± 0.34; to SQFLIMTEDR, 0.123 ± 0.34. To DGSNIFLLV belongs -0.482 ± 0.56; to KLWSSARFIWLSNHHLHGDC, 1.01 ± 0.57; to FLNPYNFWLDFWYFLIDSMT, “inactive”.

Regarding GCYHVMVRNNKTGVLVMRSA, the amyloid nucleation score stood at 0.545 ± 0.57. TGHWMGPSDYRQRVCH: the amyloid nucleation score result is “inactive”.

In turn, DSWFRPVLNFPCSRNANKSL displayed an amyloid nucleation score of 1.95 ± 0.25. On to CFSCLISWADMNSLLCYLEL, for which the amyloid nucleation score was -1.66 ± 0.48.

As for YYYVTCSILPLFYFEKGLAL, the amyloid nucleation score stood at 5.711 ± 0.037. Substance CRISQTFF registered an amyloid nucleation score of 1.82 ± 0.15. As to RELQNLFPHCILWSIIMKPN, the amyloid nucleation score is -1.49 ± 1.1.

In turn, RMLLQGVKAVGRGNNGINTV returned an amyloid nucleation score of 0.479 ± 0.8. To NTMLAFAKKSRMHFSLLLLV belongs -0.022 ± 0.37; to NYDSSDLTLFDVSRRPLLER, “inactive”. As for APRGASALGCVYSDCSVVSI, the amyloid nucleation score stood at 0.058 ± 1. To LYMCSSVLWVGLSLV belongs 0.851 ± 0.56; to RSCSMMVVHLYRGYGKFDTP, -0.354 ± 0.76; to KVLVRHLRCAISPSF, 0.256 ± 1. To VIRSLSFLSYIWVDKGVGVV belongs -0.89 ± 0.53; to YSGFI, “inactive”. To FAKLKIIGSARKYK belongs -1.19 ± 0.61. On to RVSLTIYKC, for which the amyloid nucleation score was determined as 3.24 ± 0.12. Substance GRKCVTYSCPF showed an amyloid nucleation score of 0.185 ± 0.39. Next, TDGDRFSCRVKWNRHEDQRT: 0.463 ± 0.24; SVYNWYIIPANCEQDLCM: 5.54 ± 0.095; VTVNFSANARLCRLGLLNVC: -0.222 ± 0.34.

CEEHDFMTSFICIAWAWKWL: the amyloid nucleation score is -0.66 ± 0.48. Next, LRWQKNLNSL: -0.778 ± 0.64. Next, FLDWVLSD: “inactive”; SRFLCVKTTVVALI: 4.66 ± 0.047.

With WVTSDRYKRALARKSHEQRN, the amyloid nucleation score is 0.423 ± 0.24. Next, SRFRA: 0.357 ± 0.27; IKTVIRCLDLVSFHRYGIGV: -0.401 ± 0.31. Next, KTKVL: 0.348 ± 0.65. Next, ILVREHFVSIKFLSR: -1.21 ± 1.1.

YMSVSSKGQRVCFTT registered an amyloid nucleation score of -0.488 ± 0.63. SRLCFWSVGFNKTQQVEPVR came in with an amyloid nucleation score of -1.33 ± 1.1.

Consider LCTGTCDTSAHVSSIYKFRD, for which the amyloid nucleation score is -0.712 ± 1.1. Next, MVTYVMLSIPGFSSKYFFEG: -1.42 ± 1.1; TIDKISCNIRLRPVYMLLNA: 0.342 ± 0.56. In turn, LTTPLSRQVCMRFRAFNPEA yielded an amyloid nucleation score of -0.655 ± 0.41. In turn, GLTYKSDWSSFRSVYL had an amyloid nucleation score of -0.771 ± 0.55. To MMLRLSCSSPQSLVRSSS belongs -0.181 ± 0.63; to CMRVRCFSILNSAFCKCEMA, -1.62 ± 1.1.

With DSDKLHDRDVVWNWGRGLYR, the amyloid nucleation score came out at 0.399 ± 0.23.

In the case of FACLYKTMQQLMGIKMCVKA, the amyloid nucleation score was 0.277 ± 0.4. On to IDLAFLLAVAVEPGWRTEV, for which the amyloid nucleation score was -0.024 ± 1. Next, RKVTAVHLRHPP: 2.2 ± 0.15; TYDLDLVMLRSMRVENLLWG: 0.616 ± 0.4. Next, ITCTFFFSVSVLSTSVDSMY: 0.674 ± 0.57. In the case of RTQSLASQ, the amyloid nucleation score was found to be 0.144 ± 0.56. RRYAKNMFRDLGWPVPTRSD returned an amyloid nucleation score of 3.09 ± 0.11. To PILGGEFDAGWRNFLFWKGW belongs 0.448 ± 0.66; to RYCFT, 1.03 ± 0.38. To VDCGFYSSIVAFYRYVHVPW belongs -0.026 ± 0.27; to SCRLFVLYALLFGLSVGCVL, “inactive”; to LVDKVYNDAILLVWDNESRT, -0.464 ± 0.64. Next, GNGMNWPC: 2.16 ± 0.13; VFIGQQDHINP: 0.363 ± 0.65. As for LMSNINVSIYIFG, the amyloid nucleation score was 7.782 ± 0.063. In turn, RLRNLFSYWLSEERSGPDGW gave an amyloid nucleation score of 2.03 ± 0.14. Next, LVTRTVWGLK: 0.223 ± 0.21. With YWKVFFKAGWVVQSSAGMSA, the amyloid nucleation score is 4.64 ± 0.068. Next, YFEPSSPGVIV: “inactive”; ISSLLFVETELHSVFNLWWM: -0.277 ± 0.44; LTHEKLKGLYCTA: -0.404 ± 0.32.

Turning to GLNVFCEKYISFKVMGIVER, the amyloid nucleation score came to 5.24 ± 0.069. Next, TICGSCT: 0.045 ± 0.79; CCLYYHMIKAWDTTGVRLVN: -1.4 ± 0.78. In turn, CMESRCFEL had an amyloid nucleation score of 0.438 ± 0.56.

As to RVLVVYRSLKVAESLSLTSV, the amyloid nucleation score stood at 0.093 ± 0.33. Regarding RVYNITILYRCLKRRLS, the amyloid nucleation score stood at 0.878 ± 0.57. The substance GKYSLTTCAR came in with an amyloid nucleation score of 0.449 ± 0.8. Next, MAVYTRVVTLCRGKPFS: 1.06 ± 0.35; LLCVGHFFLQ: “inactive”. Consider SYRSRVQYLCGNSMCLHAPI, for which the amyloid nucleation score was determined as 5.15 ± 0.098.

For the substance MYYASIIEKYLYRNDLVGVG, the amyloid nucleation score was determined as 0.269 ± 0.33. For the substance EYFMATE, the amyloid nucleation score was -0.248 ± 0.35. To QCAVDSPYDIRKLRR belongs -0.086 ± 0.39. VNRAR gave an amyloid nucleation score of -0.545 ± 0.63.

Substance DYNFIQRNNCGALCKYAKTL gave an amyloid nucleation score of -1.55 ± 0.62. Next, FLLPSYERDSSYVAYF: -0.687 ± 0.79; SCWMMFHPNPMQLKFSYCVE: -0.69 ± 0.33; TFVGVLNQTNH: 2.73 ± 0.13. To SRSLNWPSAGKLKSDYEFVV belongs -0.675 ± 0.3; to INNQGFIRPDNDSCYRFWIS, “inactive”.

Take DVCMPIKKSITITTATVRVY: the amyloid nucleation score is -0.545 ± 0.63.

Regarding VTRDARRDSQGDKVV, the amyloid nucleation score was found to be 1.02 ± 0.17. Next, CSYVDRTLGSNLWVVRSNSQ: 0.737 ± 0.51; LCSTG: 0.815 ± 0.53.

For the origin of these results see the supplement of paper PMC12042874.
